{"source": "paper PMC4601027", "about": "“Structural Analysis of the Pin1-CPEB1 interaction and its potential role in CPEB1 degradation” (Scientific Reports, 2015)", "key": {"full-length Pin1 [1]": {"target": "T1, full-length Pin1 (UniProt Q13526 1-163)", "T1 construct": "Pin1 (peptidyl-prolyl cis/trans isomerase), full length; WW domain, linker and PPIase (catalytic) domain; Uniprot Q13526 is printed for the WW construct; 15N-labelled for NMR; The vector has a TEV cleavage site; Monomer by IM-MS; also called Pin1 full-length; full-length Pin1 protein; source: recombinant; clone from Addgene (Dustin Maly's Lab) in pMCSG7", "T1 sequence (Q13526 whole entry, the tested form may be a part)": "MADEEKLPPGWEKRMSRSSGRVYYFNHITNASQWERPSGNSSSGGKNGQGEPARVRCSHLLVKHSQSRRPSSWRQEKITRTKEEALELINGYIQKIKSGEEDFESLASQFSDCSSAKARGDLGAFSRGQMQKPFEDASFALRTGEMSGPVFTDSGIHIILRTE", "experiment": "native MS; travelling wave ion mobility mass spectrometry (IM-MS), nano-electrospray; unbound full-length Pin1 or Pin1 with CPEB1 pS210, 30-50 μM, 20-50 mM NH4OAc pH 7.2", "settings": "both partners purified"}, "full-length Pin1 [2]": {"target": "T1, full-length Pin1", "experiment": "ITC; nano ITC, 12 °C or 25 °C; 20 mM Tris-HCl pH 7.0, 130 mM NaCl; 10- to 15-fold concentrated peptide injected (16 x 3 μL) into 190 μL of protein at 150-200 μM; single-site fit, except Pin1 full-length with pS210", "settings": "both partners purified"}}, "note": "Several values for one entry are separate records, joined by “and”; a condition that tells them apart may be missing. Identical values can stand only once. Non-standard residues stand in square brackets, D forms with d. No end group written: not given here. pS = N[C@@H](COP(=O)(O)O)C(=O)O"}
{"binder": "RI[pS]PPLPF-NH2", "note": "[CPEB1 pS210 peptide]", "values": [{"measurement": "stoichiometry N", "setting": "full-length Pin1 [1]", "value": "1 ligands per Pin1 and 2 ligands per Pin1"}, {"measurement": "stoichiometry N", "setting": "full-length Pin1 [2]", "value": 0.85}]}
